Laboratory results: publication PMC6478803

Target: FleQ (Pseudomonas syringae pv. tomato DC3000) (UniProt Q884Y2)
Test: EMSA
Conditions: STAD: 25 mM Tris-acetate pH 8.0, 8 mM Mg-acetate, 10 mM KCl, 3.5% PEG-8000, 1 mM DTT, 10 ug/ml poly(dI-dC), 200 ug/ml BSA; 20 nM probe (Results: 1 nM); 30 min …

With “GTTCGATTAATCCAGTGAGCCTTTCGGTGCAGTTGGTCTGCGCCAACGCCACTGTCGGCGCGCCGCTGAATCTGGGTGACCTCAAGGCCGGTGAACGCTATAGCATCTTGCTGGTGCCGTCCGCCACAGGCCCGCGCCTGTTGTCGGCCACGGACACACTGTCCAACTGATCGGGTTCTGTCGTCGTTATGGTATTCGCCTCGCTTGAGTTTCTGATGGTGTTCCTGCCGGCTTTTTTGCTGGCCTATGCCGCAAGCCCGGCGGCGTGGCGCAACGTCGTTCTGTTGATCGGCAGTTGG (double strand) [wssH (wssH1)]” the binding was “no binding”.
